From patent publication US20170349669A1 (Hoffmann-La Roche, published 2017)

T1: TWEAK (human, UniProt O43508 94-249, limits assumed)
T1 construct: The assay paragraph says only 'TWEAK'; also called human TWEAK; TNF-related weak inducer of apoptosis
T1 sequence (looked up): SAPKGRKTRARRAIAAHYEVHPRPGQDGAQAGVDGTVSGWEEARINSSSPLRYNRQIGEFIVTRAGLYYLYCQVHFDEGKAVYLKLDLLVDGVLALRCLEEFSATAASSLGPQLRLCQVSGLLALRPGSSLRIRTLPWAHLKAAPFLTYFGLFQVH

T2: human IL17 (human, UniProt Q16552 24-155)
T2 construct: Used as analyte in solution; also called IL17-A
T2 sequence (looked up): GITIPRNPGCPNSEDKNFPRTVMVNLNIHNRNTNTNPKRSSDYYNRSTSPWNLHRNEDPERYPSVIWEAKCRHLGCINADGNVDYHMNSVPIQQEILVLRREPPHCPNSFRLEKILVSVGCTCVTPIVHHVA


Key:
TWEAK = biological target: T1, TWEAK; test: SPR Biacore T200 25 C, apparent KD, TWEAK amine-coupled on C1 chip, antibody as analyte
human IL17 = biological target: T2, human IL17; test: SPR Biacore T200 25 C, antibody captured via anti-human F(ab')2, human IL17 as analyte, 1:1 Langmuir
Method: Around 6000 resonance units (RU) of the capturing system (15 μg/ml goat anti human F(ab′)2; Order Code: 28958325; GE Healthcare Bio-Sciences AB, Schweden) were coupled on a CM5 chip at pH 5.0 by using an amine coupling kit supplied by the GE Healthcare. The sample and system buffer was PBS-T (10 mM phosphate buffered saline including 0.05% Tween 20) pH 7.4. The bispecific antibody was captured by injecting a 50 nM solution for 90 sec at a flow of 10 μl/min. Association was measured by injection human IL17 in various concentrations in solution for 3 min at a flow of 30 μl/min starting with 50 nM in 1:1 serial dilutions. The dissociation phase was monitored for up to 10 min and triggered by switching from the sample solution to running buffer. The surface was regenerated twice by 60 sec wash with a 10 mM glycine pH 2.1 solution at a flow rate of 30 μl/min. Bulk refractive index differences were corrected by subtracting the response obtained from a goat anti human F(ab′)2 surface. Blank injections are also subtracted (=double referencing). For calculation of apparent KD and other kinetic parameters, the Langmuir 1:1 model was used.

Row | Binder | Kd (TWEAK) | Kd (human IL17)
1 | TweakIL17_101 (bispecific antibody, human IgG4 S228P, kappa, also called TweakIL17_101 (wt); TweakIL17_0101) heavy 1: DIQMTQSPSSVSASVGDRVTITCQASQNIYSNLAWYQQKPGKAPKLLIYTASYLASGVPSRFSGSGSGTDYTLTISSLQPEDFATYYCQTAYYNSRPDTVAFGGGTKVEIKRTVAAPSVFIFPPSDEQLKSGTASVVCLLNNFYPREAKVQWKVDNALQSGNSQESVTEQDSKDSTYSLSSTLTLSKADYEKHKVYACEVTHQGLSSPVTKSFNRGECPPCPPCPAPEFEGGPSVFLFPPKPKDTLMISRTPEVTCVVVDVSQEDPEVQFNWYVDGVEVHNAKTKPREEQFNSTYRVVSVLTVLHQDWLNGKEYKCKVSNKGLPSSIEKTISKAKGQPREPQVYTLPPCQEEMTKNQVSLWCLVKGFYPSDIAVEWESNGQPENNYKTTPPVLDSDGSFFLYSRLTVDKSRWQEGNVFSCSVMHEALHNHYTQKSLSLSL light 1: QVQLVQSGAEVKKPGSSVKVSCKASGFDFSTYYMSWVRQAPGQGLEWMGTVYVRQGTTYYASWLNGRVTITADESTSTAYMELSSLRSEDTAVYYCARGGYNYDDAFVIWGQGTLVTVSSASTKGPSVFPLAPCSRSTSESTAALGCLVKDYFPEPVTVSWNSGALTSGVHTFPAVLQSSGLYSLSSVVTVPSSSLGTKTYTCNVDHKPSNTKVDKRVESKYG heavy 2: EVQLVESGGGLVQPGGSLRLSCAASGFSLDSYGVHWVRQATGKGLEWVSVIWSDGTTTYNSALKSRFTISRENAKNSLYLQMNSLRAGDTAVYYCARDTHYRLYYYAMDYWGQGTTVTVSSASTKGPSVFPLAPCSRSTSESTAALGCLVKDYFPEPVTVSWNSGALTSGVHTFPAVLQSSGLYSLSSVVTVPSSSLGTKTYTCNVDHKPSNTKVDKRVESKYGPPCPPCPAPEFEGGPSVFLFPPKPKDTLMISRTPEVTCVVVDVSQEDPEVQFNWYVDGVEVHNAKTKPREEQFNSTYRVVSVLTVLHQDWLNGKEYKCKVSNKGLPSSIEKTISKAKGQPREPQVCTLPPSQEEMTKNQVSLSCAVKGFYPSDIAVEWESNGQPENNYKTTPPVLDSDGSFFLVSRLTVDKSRWQEGNVFSCSVMHEALHNHYTQKSLSLSL light 2: DIVMTQSPLSLPVTPGEPASISCRSSQSLVHSNGDTYFHWYLQKPGQSPQLLIYKVSNRFSGVPDRFSGSGSGTDFTLKISRVEAEDVGVYYCSQTTHAPFTFGQGTKLEIKRTVAAPSVFIFPPSDEQLKSGTASVVCLLNNFYPREAKVQWKVDNALQSGNSQESVTEQDSKDSTYSLSSTLTLSKADYEKHKVYACEVTHQGLSSPVTKSFNRGEC | < 0.1 nM | 0.1 nM
2 | TweakIL17_0128 (bispecific antibody, human IgG4 S228P, kappa, also called TweakIL17_128) heavy 1: DIQMTQSPSSVSASVGDRVTITCQASQNIYSNLAWYQEKPGKAPKLLIYTASYLASGVPSRFSGSGSGTDYTLTISSLQPEDFATYYCQTAYYNSRPDTVAFGGGTKVEIKRTVAAPSVFIFPPSDEELKSGTASVVCLLNNFYPREAKVQWKVDNALQSGNSQESVTEQDSKDSTYSLSSTLTLSKADYEKHKVYACEVTHQGLSSPVTKSFNRGECPPCPPCPAPEFEGGPSVFLFPPKPKDTLMISRTPEVTCVVVDVSQEDPEVQFNWYVDGVEVHNAKTKPREEQFNSTYRVVSVLTVLHQDWLNGKEYKCKVSNKGLPSSIEKTISKAKGQPREPQVYTLPPCQEEMTKNQVSLWCLVKGFYPSDIAVEWESNGQPENNYKTTPPVLDSDGSFFLYSRLTVDKSRWQEGNVFSCSVMHEALHNHYTQKSLSLSL light 1: QVQLVQSGAEVKKPGSSVKVSCKASGFDFSTYYMSWVRKAPGQGLEWMGTVYVRQGTTYYASWLNGRVTITADESTSTAYMELSSLRSEDTAVYYCARGGYNYDDAFVIWGQGTLVTVSSASTKGPSVFPLAPCSRSTSESTAALGCLVKDYFPEPVTVSWNSGALTSGVHTFPAVLQSSGLYSLSSVVTVPSSSLGTKTYTCNVDHKPSNTKVDKRVESKYG heavy 2: EVQLVESGGGLVQPGGSLRLSCAASGFSLDSYGVHWVREATGKGLEWVSVIWSDGTTTYNSALKSRFTISRENAKNSLYLQMNSLRAGDTAVYYCARDTHYRLYYYAMDYWGQGTTVTVSSASTKGPSVFPLAPCSRSTSESTAALGCLVEDYFPEPVTVSWNSGALTSGVHTFPAVLQSSGLYSLSSVVTVPSSSLGTKTYTCNVDHKPSNTKVDERVESKYGPPCPPCPAPEFEGGPSVFLFPPKPKDTLMISRTPEVTCVVVDVSQEDPEVQFNWYVDGVEVHNAKTKPREEQFNSTYRVVSVLTVLHQDWLNGKEYKCKVSNKGLPSSIEKTISKAKGQPREPQVCTLPPSQEEMTKNQVSLSCAVKGFYPSDIAVEWESNGQPENNYKTTPPVLDSDGSFFLVSRLTVDKSRWQEGNVFSCSVMHEALHNHYTQKSLSLSL light 2: DIVMTQSPLSLPVTPGEPASISCRSSQSLVHSNGDTYFHWYLKKPGQSPQLLIYKVSNRFSGVPDRFSGSGSGTDFTLKISRVEAEDVGVYYCSQTTHAPFTFGQGTKLEIKRTVAAPSVFIFPPSDKKLKSGTASVVCLLNNFYPREAKVQWKVDNALQSGNSQESVTEQDSKDSTYSLSSTLTLSKADYEKHKVYACEVTHQGLSSPVTKSFNRGEC | < 0.1 nM | 0.1 nM
3 | TweakIL17_103 (bispecific antibody, human IgG4 S228P, kappa, also called TweakIL17_0103) heavy 1: DIQMTQSPSSVSASVGDRVTITCQASQNIYSNLAWYQQKPGKAPKLLIYTASYLASGVPSRFSGSGSGTDYTLTISSLQPEDFATYYCQTAYYNSRPDTVAFGGGTKVEIKRTVAAPSVFIFPPSDEELKSGTASVVCLLNNFYPREAKVQWKVDNALQSGNSQESVTEQDSKDSTYSLSSTLTLSKADYEKHKVYACEVTHQGLSSPVTKSFNRGECPPCPPCPAPEFEGGPSVFLFPPKPKDTLMISRTPEVTCVVVDVSQEDPEVQFNWYVDGVEVHNAKTKPREEQFNSTYRVVSVLTVLHQDWLNGKEYKCKVSNKGLPSSIEKTISKAKGQPREPQVYTLPPCQEEMTKNQVSLWCLVKGFYPSDIAVEWESNGQPENNYKTTPPVLDSDGSFFLYSRLTVDKSRWQEGNVFSCSVMHEALHNHYTQKSLSLSL light 1: QVQLVQSGAEVKKPGSSVKVSCKASGFDFSTYYMSWVRQAPGQGLEWMGTVYVRQGTTYYASWLNGRVTITADESTSTAYMELSSLRSEDTAVYYCARGGYNYDDAFVIWGQGTLVTVSSASTKGPSVFPLAPCSRSTSESTAALGCLVKDYFPEPVTVSWNSGALTSGVHTFPAVLQSSGLYSLSSVVTVPSSSLGTKTYTCNVDHKPSNTKVDKRVESKYG heavy 2: EVQLVESGGGLVQPGGSLRLSCAASGFSLDSYGVHWVRQATGKGLEWVSVIWSDGTTTYNSALKSRFTISRENAKNSLYLQMNSLRAGDTAVYYCARDTHYRLYYYAMDYWGQGTTVTVSSASTKGPSVFPLAPCSRSTSESTAALGCLVEDYFPEPVTVSWNSGALTSGVHTFPAVLQSSGLYSLSSVVTVPSSSLGTKTYTCNVDHKPSNTKVDERVESKYGPPCPPCPAPEFEGGPSVFLFPPKPKDTLMISRTPEVTCVVVDVSQEDPEVQFNWYVDGVEVHNAKTKPREEQFNSTYRVVSVLTVLHQDWLNGKEYKCKVSNKGLPSSIEKTISKAKGQPREPQVCTLPPSQEEMTKNQVSLSCAVKGFYPSDIAVEWESNGQPENNYKTTPPVLDSDGSFFLVSRLTVDKSRWQEGNVFSCSVMHEALHNHYTQKSLSLSL light 2: DIVMTQSPLSLPVTPGEPASISCRSSQSLVHSNGDTYFHWYLQKPGQSPQLLIYKVSNRFSGVPDRFSGSGSGTDFTLKISRVEAEDVGVYYCSQTTHAPFTFGQGTKLEIKRTVAAPSVFIFPPSDKKLKSGTASVVCLLNNFYPREAKVQWKVDNALQSGNSQESVTEQDSKDSTYSLSSTLTLSKADYEKHKVYACEVTHQGLSSPVTKSFNRGEC | < 0.1 nM | 0.1 nM
